Test results published in patent US20190241662A1 (ADAGENE, published 2019).
Positions count from the first letter of the chain named. Like-named read-outs stand apart in the source and are kept apart here. Blank lines part the entries; values can stand above or below the binder they belong to.

What was measured:
[1] = molecular target: T1, recombinant human CTLA4-Fc (human, UniProt P16410 36-162); assay: ELISA; EC50 divided by the EC50 of TY21580
T1 construct: also called human CTLA4 fused with human FC fragment; CTLA4-Fc (Sino Biological, 11159-H03H)
T1 sequence (looked up): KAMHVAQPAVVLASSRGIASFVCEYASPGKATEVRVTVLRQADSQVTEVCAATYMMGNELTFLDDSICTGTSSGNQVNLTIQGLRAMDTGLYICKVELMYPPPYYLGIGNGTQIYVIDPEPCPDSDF
Description: (§1) Plates were blocked with PBS supplemented with 3% non-fat milk at 37° C. for 1 hour. After washing, 100 μL of 3-fold serial dilutions of antibodies were added to each well. After incubation at 37° C. for 1 hour, plates were washed four times, and 100 μL HRP conjugated anti-human IgG (Fab specific) (1:6000 dilution) was added to each well. Plates were incubated at 37° C. for 1 hour, washed four times, and then 50 μL TMB substrate solution was added to each well, and the plate was incubated at room temperature. […] The EC₅₀ was evaluated by fitting the ELISA data using the asymmetrical sigmoidal (five-parameter logistic equation) model of GraphPad Prism 6 software.

[2] = molecular target: T1, recombinant human CTLA4-Fc; assay: ELISA, coated human CTLA4-Fc (as in Example 8)
Description: as §1

[3] = molecular target: T1, recombinant human CTLA4-Fc; assay: ELISA, coated human CTLA4-Fc (as in Example 8); remark: listed apart in the source
Description: as §1

[4] = molecular target: T2, recombinant human CTLA4 protein (construct not stated) (human, UniProt P16410 36-162, limits assumed); assay: SPR (Biacore T200), IgG captured by anti-human Fc
T2 construct: also called biotinylated human CTLA4; human recombinant CTLA4 proteins
T2 sequence (looked up): T1 sequence (looked up)
Source text: (§2) Binding affinity and kinetics of antibodies against human, monkey and mouse CTLA4 were examined (Table 4) by surface plasmon resonance (SPR) analysis using a Biacore™ T200 instrument (Biacore AB, Uppsala, Sweden) according to the manufacturer's guidelines. Anti-Human IgG (Fc) antibody from Human Antibody Capture Kit (GE BR-1008-39) was immobilized on CM5 chips by coupling of its amine groups onto carboxylated surfaces of sensor chips according to the instructions of an Amine Coupling kit (GE Biacore #BR-1000-50). […] The association and dissociation curves were fitted to a 1:1 Langmuir binding model using Biacore T200 Evaluation Software (Biacore AB) according to the manufacturer's guidelines.

[5] = molecular target: T3, monkey CTLA4 (SPR analyte, construct not stated) (monkey, UniProt G7PL88 36-161); assay: SPR (Biacore T200), IgG captured by anti-human Fc
T3 sequence: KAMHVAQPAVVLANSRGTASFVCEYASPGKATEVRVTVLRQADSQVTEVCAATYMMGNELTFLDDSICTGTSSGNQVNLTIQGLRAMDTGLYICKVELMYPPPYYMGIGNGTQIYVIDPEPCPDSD
Source text: as §2

[6] = molecular target: mouse CTLA4 (SPR analyte, construct not stated) (mouse, UniProt P09793 36-162, limits assumed); assay: SPR (Biacore T200), IgG captured by anti-human Fc
Source text: as §2

[7] = molecular target: T1, recombinant human CTLA4-Fc; assay: BLI Octet, CTLA4-Fc on AHC sensor, Fab 10 ug/mL
Description: Proprietary phagemid libraries (see PCT application number PCT/CN2017/098333, incorporated herein by reference in its entirety; see also PCT application number PCT/CN2017/098299, incorporated herein by reference in its entirety) were employed to pan against human CTLA4 antigens. A total of 3-5 rounds of panning were conducted. After the final round of panning, single-colony supernatant ELISA was performed to identify the primary hits that specifically recognized human CTLA4 (see e.g., UniProt Accession Number P16410). The primary hits were defined as those whose ELISA signals were at least twice that of background. The hits were then sequenced, and the unique clones were expressed in E. coli and purified. Their affinities against human CTLA4 were measured by ForteBio Octet RED96 Systems. […] The acquired ForteBio data were processed with Data Acquisition software 7.1, and kinetic data were fitted to a 1:1 Langmuir binding model.

[8] = molecular target: T4, full-length human CTLA4 expressed on cells (human, UniProt P16410 36-223); assay: flow cytometry, transfected HEK293F cells, antibody concentration not printed [Cont.]
T4 construct: whole, on cells; also called HEK293F/hCTLA-4 cells; HEK293F/hCTLA4 cells
T4 sequence (looked up): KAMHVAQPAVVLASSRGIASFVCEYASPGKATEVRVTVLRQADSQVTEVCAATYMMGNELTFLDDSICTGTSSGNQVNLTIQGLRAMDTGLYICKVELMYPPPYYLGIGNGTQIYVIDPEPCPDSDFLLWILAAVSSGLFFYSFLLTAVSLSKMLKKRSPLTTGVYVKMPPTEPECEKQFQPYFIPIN
Description: (§3) The affinities of the antibodies were also assessed against human and mouse CTLA4 transiently expressed on the surface of HEK293F cells (FIG. 2). Briefly, HEK293F cells were transfected with a plasmid expressing full-length human, monkey or mouse CTLA4 from a bicistronic IRES vector also encoding EGFP, and EGFP expression was used to identify the transfected cells. After 48 hours, the mammalian cell suspension (2×10⁵/well) was transferred to an Eppendorf tube, centrifuged, the supernatant was discarded, the cells were resuspended with 1 mL PBSA (to a density is 4×10⁶ cells/mL), and added to a 96 well plate. […] The cells were then washed once prior to analysis by flow cytometry (Beckman® CytoFlex).

[9] = molecular target: T5, full-length mouse CTLA4 expressed on HEK293F cells (mouse, UniProt P09793 36-223); assay: as above
T5 construct: whole, on cells
Description: as §3

[10] = molecular target: T6, recombinant human CTLA4 fused with human Fc and His tag (human, UniProt P16410 36-162, limits assumed); assay: competition ELISA: plate-bound human CTLA4-Fc-His, biotinylated CD80 as blocked ligand
T6 construct: Coated in the CD80 ELISA, biotinylated and in solution in the CD86 ELISA; also called biotinylated human CTLA4 fused with human FC and His tag
T6 sequence (looked up): T1 sequence (looked up)
Description: Antibodies were then tested for their ability to block binding of CTLA4 to its cognate ligands CD80 and CD86 by ELISA. […] Plates were blocked with PBS supplemented with 2% (w/v) skim milk at 37° C. for 1 hour. […] Plates were washed four times, and 100 μL HRP-neutravidin (1:1000) was added to each well and incubated at 37° C. for 1 hour. Plates were washed as previously described, and 50 μL TMB substrate solution was added and incubated at room temperature for 5 minutes before the reaction was stopped by 50 μL sulfate acid (2M).

[11] = molecular target: T4, full-length human CTLA4 expressed on …; assay: flow cytometry blocking: HEK293F cells with human CTLA4, 100 nM antibody, then 100 nM CD80-Fc-Bio (blocked ligand); PBSA panel: Mean 157692, 26.3%
Description: Antibodies were also tested for their ability to block binding of CTLA4 to its cognate ligands CD80 and CD86 by flow cytometry. The plasmid encoding full-length human CTLA4 was transiently expressed in HEK293F cells. Cells were washed with staining buffer (PBSA buffer including 1.76 mM KH₂PO₄, 10.14 mM Na₂HPO₄.12H₂O, 2.68 mM KCl, 136.89 mM NaCl and 1% BSA), and resuspended in staining buffer containing 100 nM test antibodies. […] Cells were washed once, and analyzed by CytoFlex flow cytometry.

EC50 [3]: 133 nM
B2: TY23289 (antibody, V domains shown)
VH: EVQLVESGGGLVQPGGSLRLSCAASGYSISSGYHWSWIRQAPGKGLEWLARIDWDDDKYYSTSLKSRLTISRDNSKNTLYLQLNSLRAEDTAVYYCARSYVYFDYWGQGTLVTVSS
VL: DIQLTQSPSSLSASVGDRVTITCRASQSVRGRFLAWYQQKPGKAPKLLIYDASNRATGIPSRFSGSGSGTDFTLTISSLQPEDFATYYCQQSSSWPPTFGQGTKVEIKR

EC50 [3]: 1500 nM
B3: TY23286 (antibody, V domains shown)
VH: B2 VH
VL: B2 VL

EC50 [3]: 2950 nM
B5: TY23280 (antibody, V domains shown)
VH: B2 VH
VL: B2 VL

masking efficiency [1]: 296
EC50 [2]: 65.9 nM
B6: TY22776 (antibody, V domains shown)
VH: B2 VH
VL: EVGSSDCVPYYYACAYSGRSAGGGGTPLGLAGSGGSDIQLTQSPSSLSASVGDRVTITCRASQSVRGRFLAWYQQKPGKAPKLLIYDASNRATGIPSRFSGSGSGTDFTLTISSLQPEDFATYYCQQSSSWPPTFGQGTKVEIKR

Continued, binder first:

B1: TY22775 (antibody, V domains shown)
VH: B2 VH
VL: B6 VL with S4H, V8D, P9A, Y10F, Y12P, A13Y, A15D, Y16S
masking efficiency [1]: 168
EC50 [2]: 37.3 nM

B4: TY23291 (antibody, V domains shown)
VH: B2 VH
VL: B2 VL
EC50 [3]: 3660 nM

B7: TY21692 (antibody, V domains shown)
VH: EVQLVESGGGLVQPGGSLRLSCAASGYSITSGHYWSWIRQAPGKGLEWIGDISHSGSTYYSQSLKSRVTISRDNSKNTLYLQLNSLRAEDTAVYYCARGSRTGYFDYWGQGTLVTVSS
VL: DIQLTQSPSSLSASVGDRVTITCRASQSISSYLNWYQQKPGKAPKLLIYDASNLETGVPSRFSGSGSGTDFTLTISSLQPEDFATYYCQHHYGTPLTFGQGTKVEIKR
notes: human IgG1 (hIgG1) from Fab hit B16083
Kd [4]: 3.95 nM
Kd [5]: 2.76 nM
Kd [6]: 1.12 nM

B8: B15716 (Fab, V domains shown)
VH: EVQLVESGGGLVQPGGSLRLSCAASGYSITSGYYWAWIRQAPGKGLEWVSSISGSGSTTYYADSVKGRFTISRDNSKNTLYLQLNSLRAEDTAVYYCARDGFGYFDYWGQGTLVTVSS
VL: DIQLTQSPSSLSASVGDRVTITCSASSSVSYVYWYQQKPGKAPKLLIYDASSLESGVPSRFSGSGSGTDFTLTISSLQPEDFATYYCVQGLQTPWTFGQGTKVEIKR
notes: Fab from E. coli; also called Fab hit of TY21586
Kd [7]: 12.1 nM

B9: TY21588 (antibody, V domains shown)
VH: EVQLVESGGGLVQPGGSLRLSCAASGYSISSGYHWDWIRQAPGKGLEWVSGISGYGGSTYYADSVKGRFTISRDNSKNTLYLQLNSLRAEDTAVYYCARHSYYGSGNFDYWGQGTLVTVSS
VL: DIQLTQSPSSLSASVGDRVTITCRASESVDFFGKSFLHWYQQKPGKAPKLLIYDASNLETGVPSRFSGSGSGTDFTLTISSLQPEDFATYYCQQSYSWPPTFGQGTKVEIKR
notes: human IgG1 (hIgG1) from Fab hit B15732
% of cells in upper right quadrant (Q2) [8]: 27%
% of cells in upper right quadrant (Q2) [9]: 32.1%
IC50 (read off the curve) [10]: ~1 nM
% of cells in upper right quadrant (CD80-positive) in the presence of the antibody [11]: 19.4%
Mean of the CD80 binding signal in the presence of the antibody [11]: 8180

B10: B15717 (Fab, V domains shown)
VH: EVQLVESGGGLVQPGGSLRLSCAASGYTFSGYGIHWVRQAPGKGLEWIGEIYHSGSTYYSPSLKSRVTISRDNSKNTLYLQLNSLRAEDTAVYYCARRIDAFDIWGQGTLVTVSS
VL: B9 VL with E27Q, F32D, K34F, N57S, T60S, S95R, Y96D, P100Y
notes: Fab from E. coli; also called Fab hit of TY21689
Kd [7]: 105 nM

B11: B15756 (Fab, V domains shown)
VH: EVQLVESGGGLVQPGGSLRLSCAASGFSLSTGGVAVSWIRQAPGKGLEWIGEIYHSGSTYYSPSLKSRVTISRDNSKNTLYLQLNSLRAEDTAVYYCARRIATATYFDYWGQGTLVTVSS
VL: DIQLTQSPSSLSASVGDRVTITCRASQTVFSRYLAWYQQKPGKAPKLLIYDASNRATGIPSRFSGSGSGTDFTLTISSLQPEDFATYYCQQSYYWPPWTFGQGTKVEIKR
notes: Fab from E. coli; also called Fab hit of TY21591
Kd [7]: 55.5 nM
koff [7]: 0.00663 s⁻¹
kon [7]: 120000 M⁻¹ s⁻¹

B12: B15722 (Fab, V domains shown)
VH: EVQLVESGGGLVQPGGSLRLSCAASGFTFSDYGIHWVRQAPGKGLEWIGEIYHSGSTYYSPSLKSRVTISRDNSKNTLYLQLNSLRAEDTAVYYCARDVAPGSSGYYDGFDFWGQGTLVTVSS
VL: DIQLTQSPSSLSASVGDRVTITCRASQGIGSSLAWYQQKPGKAPKLLIYDASNRATGIPSRFSGSGSGTDFTLTISSLQPEDFATYYCQQYDQWPPWTFGQGTKVEIKR
notes: Fab from E. coli; also called Fab hit of TY21587
Kd [7]: 61.2 nM
koff [7]: 0.00434 s⁻¹
kon [7]: 70900 M⁻¹ s⁻¹
